What was measured:
DNA1-Bi = test: Hybridoma antibody specificity immunoassay; type: binding; conditions: hybridoma antibody subclones, Table 1-4
Excerpt: (§1) From two selected animals, spleen cells were fused to Ag8 cells to generate antibody-producing hybridomas using state-of-the-art hybridoma cell technology. After cell fusion, hybridomas were screened for specific reactivity with LNA-containing ASOs using DNA-containing ASOs for specificity evaluation.
(§2) In more detail, from two cell fusions, 3840 initial hybridoma clones resulting in 33 primary hybridoma clones were obtained. Thereof, 11 were selected for further characterization of binding characterization by biomolecular interaction analysis (kinetic and thermodynamic surface plasmon resonance). Five primary hybridoma clones were further processed by subcloning to generate monoclonal hybridoma cell culture clones.
(§3) From immunoreactive mice (2 animals selected), spleen cells were fused to Ag8 cells to generate antibody-producing fusion cells using state-of-the-art hybridoma cell technology. After cell fusion, hybridomas were screened for specific reactivity with LNA-containing ASOs using DNA-containing ASOs for specificity evaluation.
(§4) From two cell fusions, 3840 initial hybridoma clones resulting in 33 primary hybridoma clones were obtained. Thereof, 11 were selected for further characterization of binding properties by biomolecular interaction analysis (kinetic and thermodynamic surface plasmon resonance). Finally, 5 primary hybridoma clones were further processed by subcloning to generate monoclonal hybridoma cell culture clones (Tables 1-3 and 1-4).

DNA2-Bi = test: Hybridoma antibody specificity immunoassay; type: binding; conditions: hybridoma antibody subclones, Table 1-4
Excerpt: as §1, §2, §3, §4

DNA4b-Bi = test: Hybridoma antibody specificity immunoassay; type: binding; conditions: hybridoma antibody subclones, Table 1-4
Excerpt: as §1, §2, §3, §4

LNA1-Bi = test: Hybridoma antibody specificity immunoassay; type: binding; conditions: hybridoma antibody subclones, Table 1-4
Excerpt: as §1, §2, §3, §4

LNA2-Bi = test: Hybridoma antibody specificity immunoassay; type: binding; conditions: hybridoma antibody subclones, Table 1-4
Excerpt: as §1, §2, §3, §4

LNA4b-Bi = test: Hybridoma antibody specificity immunoassay; type: binding; conditions: hybridoma antibody subclones, Table 1-4
Excerpt: as §1, §2, §3, §4

[1] = system: LNA sequence (nucleotides/sequence of bases); test: Epitope mapping solid phase immunoassay (ELISA); type: binding
Excerpt: The epitope was mapped using immunoassays with capture molecules containing the following binding epitopes as well as combinations thereof: • LNA (2′-0,4-C-methylene), • phosphorothioate in the NA backbone, • nucleotides/sequence of bases, • DNA, • GalNAc-C6-modification.
The results of the epitope characterization of the antibodies according to the current invention by solid phase immunoassay (ELISA) using different biotinylated LNA, PS-backbone or DNA-containing NA-oligonucleotides as outlined above are shown in FIGS. 1 to 5.
The selected monoclonal LNA-specific Abs were further characterized for binding characteristics and epitope mapped by immunoassay using capture molecules containing the following binding epitopes and combinations thereof • LNA (2′-O.4-C-methylene) • phosphorothioate in the NA backbone • nucleotides/sequence of bases • DNA • GalNAc-C6-modification
The results of the antibody characterization by solid phase immunoassay (ELISA) using different biotinylated LNA, PS-backbone or DNA-containing NA-oligonucleotides are shown in FIGS. 1 to 5.

ASO 042 = test: SPR (BIAcore) binding kinetics and affinity; conditions: analyte ASO 042; bivalent IgG format; 25° C.
Method: (§5) In more detail, LNA binding of the antibodies according to the current invention was characterized by surface plasmon resonance (SPR) using a BIAcore instrument with a HEPES-based running and dilution buffer at 25° C. About 100-200 resonance units (RU) of an anti-LNA antibody with an Fc-region of the human IgG1 subclass and the mutations P329G, L234A and L235A (according to Kabat EU index; human IgG Fc-PGLALA) or an anti-LNA Fab fragment with human CL and CH1 (kappa, IgG1 isotype), respectively, was captured on the surface of a Series S Sensor Chip CM3 derivatized by standard amine coupling with either a mouse anti-human IgG Fc-PGLALA antibody or a goat anti-human F(ab′2) antibody with final total surface densities of approximately 5000 RU. Different LNA-modified ASOs were passed over the derivatized SPR chip surface by injecting the respective solutions in a 1:3 dilution series up to a final concentration of 1000 nM. Association was monitored for 3 min and dissociation for 5 min at a flow rate of 30 μl/min each. Bulk refractive index differences were corrected by subtracting blank injections and by subtracting the response obtained from the reference flow cell without captured antibody. Curve fitting was performed using the 1:1 Langmuir binding model within the BIAcore evaluation software.
(§6) To assess the binding specificities and affinities of the LNA-binding antibodies according to the current invention, surface plasmon resonance was used as described, e.g., in WO 2020/141117 and WO 2022/175217.
(§7) To assess the specificities and affinities of LNA-binding antibodies, surface plasmon resonance was done as described in WO 2020/141117 and WO 2022/175217. ASO binding was investigated by surface plasmon resonance (SPR) using a BIAcore T200 instrument (Cytiva). As a running and dilution buffer, HEPES buffered saline (HBS) containing 0.05% PS20 was used, the temperature was set to 25° C. For capturing anti-LNA Fabs or complete anti-LNA antibodies to a Series S Sensor Chip CM3 (Cytiva), either a mouse anti-human IgG antibody (Roche Diagnostics GmbH) or a goat anti-human F(ab′2) antibody (Jackson ImmunoResearch) was immobilized using standard amine coupling chemistry with final total surface densities of approximately 5000 resonance units (RU). The anti-LNA antibodies were captured to the surface by an injection for 30 sec., leading to response levels of approx. 100-200 RU. Different ASO molecules were injected in a 1:3 dilution series up to 1000 nM. Association was monitored for 3 min. and dissociation for 5 min. at a flow rate of 30 μl/min each. Subsequently, the surface was regenerated by injecting 10 mM NaOH (anti-human IgG antibody surface) or 10 mM Glycine pH 1.7 (anti-human IgG F(ab′2) antibody surface) for 60 sec. Bulk refractive index differences were corrected by subtracting blank injections and by subtracting the response obtained from the reference flow cell without captured antibody. Curve fitting was performed using the 1:1 Langmuir binding model within the BIAcore evaluation software.

ASO 297 = test: SPR (BIAcore) binding kinetics and affinity; conditions: analyte ASO 297, bivalent IgG format, 25° C.
Method: as §5, §6, §7

ASO 420 = test: SPR (BIAcore) binding kinetics and affinity; conditions: analyte ASO 420, bivalent IgG format, 25° C.
Method: as §5, §6, §7

ASO 827 = test: SPR (BIAcore) binding kinetics and affinity; conditions: analyte ASO 827; bivalent IgG format; 25° C.
Method: as §5, §6, §7

[2] = system: fusion 2489 (antibody-ASO 918 conjugate); test: SPR (BIAcore) binding kinetics and affinity; conditions: analyte fusion 2489; bivalent IgG format; 25° C.
Method: as §5, §6, §7

[3] = system: fusion 2899 (antibody-ASO 918 conjugate); test: SPR (BIAcore) binding kinetics and affinity; conditions: analyte fusion 2899; bivalent IgG format; 25° C.
Method: as §5, §6, §7

[4] = system: LNA-modified ASOs and antibody-ASO conjugates; test: SPR binding; conditions: summary in words
Method: as §5
Further analyses of the pan anti-LNA antibody according to the invention produced by clone 1.9.21 a trivalent, bispecific format was used. This trivalent, bispecific format comprises an IgG1 Fc-region (with knobs-into-holes-cys1 mutations) to which at one of the N-termini of the Fc-region a germline Fab (DP47; SEQ ID NO: 137 and 138) has been fused and at both of the C-termini of the Fc-region each one anti-LNA Fab (fab 0699) according to the current invention produced by clone 1.9.21 has been fused (fusion 1861). […]
To assess the specificities and affinities of LNA-binding antibodies, surface plasmon resonance was done as described in WO 2020/141117 and WO 2022/175217. […] Association was monitored for 3 min. and dissociation for 5 min. at a flow rate of 30 μl/min each. […]

Molecule	Signal DNA1-Bi (DNA1-Bi)	Signal DNA2-Bi (DNA2-Bi)	Signal DNA4b-Bi (DNA4b-Bi)	Signal LNA1-Bi (LNA1-Bi)	Signal LNA2-Bi (LNA2-Bi)	Signal LNA4b-Bi (LNA4b-Bi)	LNA sequence specificity [1]	K (ASO 042)	K (ASO 297)	K (ASO 420)	K (ASO 827)	K [2]	K [3]	binding to the tested analytes (ASOs and antibody-ASO conjugates) [4]	Koff (ASO 297; oos = out of specification)	Kd (ASO 420; read-out: K)
1.9.21 (antibody, V domains shown) VH: QVQLQQSGAELVRPGTSVKVSCKASGYAFTNYLIEWIKQRPGQGLEWIGVINPGSGGTNYNEKFRVKATLTADKSSSTAYMQLSSLTSDDSAVYFCARGGGYYWGQGTLVTVSA VL: DIVMTQAAPSVPVTPGESVSISCRSSKSLLHSNGNTYLFWFLQRPGQSPQVLIYRMSNLASGVPDRFSGSGSGTAFTLRISRVEAEDVGVYYCMQHLEYPYTFGSGTRLEIK	0.064 OD	0.039 OD	0.110 OD	>4.000 OD	>4.000 OD	3.556 OD	LNA sequence specific binders	–	–	–	–	–	–	–	–	–
mAb 5391: anti-LNA antibody produced by clone 1.2.8 in the bivalent standard Y-shaped IgG format (antibody, V domains shown) VH: QIQLRESGPGLVAPSQSLSITCTVSGFSLTNYGVHWVRQPPGKGLEWLGVIWAGGSTIYNSALMSRLSISRDNSKSQVFLEMNSLQTYDTAMYYCARDRPFDGFFFSYWGQGTALTVSS VL: DVLMTQTPLSLPVSLGDQASISCRSSQAIVHRSGNTFLEWYLQKPGQSPKLLIYKVSNRFSGVPDRFSGSGSGTDFTLKINRVEAEDLGVYYCFQGSHVPYTFGSGTKLEIK	–	–	–	–	–	–	–	no binding	no binding	no binding	no binding	no/low binding	no/low binding	no to very low binding to all of the analytes tested	–	–
1.2.8 (antibody, listed as Mus musculus, V domains shown) VH: QIQLRESGPGLVAPSQSLSITCTVSGFSLTNYGVHWVRQPPGKGLEWLGVIWAGGSTIYNSALMSRLSISRDNSKSQVFLEMNSLQTYDTAMYYCARDRPFDGFFFSYWGQGTALTVSS VL: DVLMTQTPLSLPVSLGDQASISCRSSQAIVHRSGNTFLEWYLQKPGQSPKLLIYKVSNRFSGVPDRFSGSGSGTDFTLKINRVEAEDLGVYYCFQGSHVPYTFGSGTKLEIK	0.041 OD	0.037 OD	0.034 OD	2.330 OD	2.012 OD	1.916 OD	–	–	–	–	–	–	–	–	–	–
1.4.10 (antibody, listed as Mus musculus, V domains shown) VH: QIQLRESGPGLVAPSQSLSITCTVSGFSLVNYGIHWVRQPPGKGLEWLGVIWAGGSTIYNSALMSRLSISRDNSKNQVFLEMNSLQTYDTAMYYCARDRPFDGFFFSYWGQGTALTVSS VL: DVLMTQTPLSLPVSLGDQASISCRSSQAIVHRSGNTFLEWYLQKPGQSPKLLIYKVSNRFSGVPDRFSGSGSGTDFTLKINRVEAEDLGVYYCFQGSHVPYTFGSGTKLEIK	0.084 OD	0.049 OD	0.038 OD	3.398 OD	3.154 OD	2.977 OD	–	–	–	–	–	–	–	–	–	–
1.7.15 (antibody, V domains shown) VH: QVQLKQSGPSFVQPSQSLSITCTVSGFSLTTYGVHWVRQSPGKGLEWLGVIWRSGGTDYNAAFMSRLSITKDNSKSQVFFKMNSLQTDDTAIYYCTNLYYWGQGTTLTVSS VL: DIVMTQATFSNPVTLGTSVSISCRSSKSLLRSNGITYLYWYLQKPGQSPQLLIYQMSNLASGVPDRFSSSGSGTDFTLRISRVEAEDVGVYYCGQNLELPYTFGSGTKVEIK	0.060 OD	0.150 OD	0.035 OD	2.195 OD	2.815 OD	>4.000 OD	LNA sequence specific binders	–	–	–	–	–	–	–	–	–
mAb 5392: anti-LNA antibody produced by clone 1.7.15 in the bivalent standard Y-shaped IgG format (antibody, V domains shown) VH: QVQLKQSGPSFVQPSQSLSITCTVSGFSLTTYGVHWVRQSPGKGLEWLGVIWRSGGTDYNAAFMSRLSITKDNSKSQVFFKMNSLQTDDTAIYYCTNLYYWGQGTTLTVSS VL: DIVMTQATFSNPVTLGTSVSISCRSSKSLLRSNGITYLYWYLQKPGQSPQLLIYQMSNLASGVPDRFSSSGSGTDFTLRISRVEAEDVGVYYCGQNLELPYTFGSGTKVEIK	–	–	–	–	–	–	–	no binding	–	–	no binding	no/low binding	no/low binding	binds to some of the ASOs, while showing no or very low binding to other ASOs	oos	198 nM

— US20260201069A1, “ANTIBODIES THAT SPECIFICALLY BIND MODIFIED OLIGONUCLEOTIDES” (Hoffmann-La Roche Inc., priority 2024, published 2026)
